Measurements as given in US7217694B2, “Inhibitors of IAPP fibril formation and uses thereof” (The Governing Counsel of the University of Toronto, priority 2000, dated 2007).
“Also recorded” adds a separate entry of the source. No end group written: not given here.

Assays:
RIN-1056A cells = assay: IAPP toxicity assay (alamar Blue); assay type: cell-based
Description: RIN-1056A cells were plated into 96 well plates at a density of 2×10^4 cells/well in Dulbecco's Modified Eagle Medium (DMEM) (Gibco-BRL) supplemented with 5% Fetal calf serum (Gibco-BRL), 100 U/ml penicillin (Gibco-BRL), and 100 U/ml streptomycin (Gibco-BRL). After an initial 24 h of culture, cells received fresh medium containing 10 μM hIAPP or rat IAPP alone, or in combination with 200 μM SNNFGA (SEQ ID NO. 11). Cells in control wells received fresh medium only. Cells were incubated with peptide at 37° C., 5% CO2, for 24 hours, after which alamar Blue ( 1/10th volume) was added to each well. Cells were incubated in the presence of alamar Blue (MEDICORP, Montreal) for a period of 8 hours, and data was collected at 2 hour intervals. The fluorescence of the samples was measured using a SpectraMAX Gemini XS Microplate Spectrofluorometer (Molecular Devices) with an excitation wavelength of […] and an emission wavelength of 590 nm. Data were collected using the SoftMax Pro 3.1 software for MacIntosh.
The toxicity of hIAPP fibrils on pancreatic β cell lines has been well documented. […] cells were incubated for 24 hours in the presence of 10 μM hIAPP alone or in the presence of the peptide SNNFGA (SEQ ID NO. 11). An alamar Blue assay was used to quantitatively measure the proliferation of the cells, and compare the cytotoxic effects of various additives to the cultures.

hIAPP 1–37 [1] = target: T1, hIAPP 1–37 (Homo sapiens, UniProt P10997); assay: Circular dichroism (CD) of IAPP conformational change, random coil to β-sheet; assay type: biochemical
T1 construct: Synthetic human IAPP (1–37) was purchased from BACHEM; purchased BACHEM (Torrence, Calif.); host or cells: chemical synthesis
T1 sequence (P10997 34-70): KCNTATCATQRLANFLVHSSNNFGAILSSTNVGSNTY
Source text: (§1) FIG. 1 illustrates the sequence of the amyloid-β (Aβ) peptide and its proposed structural domains. A peptide-based approach similar to that used for Aβ (Tjernberg, et al, J Biol Chem 272:12601–12605, 1997) has been used for targeting two key domains in IAPP initially ranging from the 8–20 and 20–29 sequences as shown in FIG. 2. These peptides, as has been shown for Aβ peptides, are able to bind to the full-length IAPP peptide and alter fibrillogenesis. The peptides disrupt fibrillogenesis by disrupting the folding into the amyloidogenic β-sheet conformation, disrupting protofilament interactions, and/or interfering with side chain interactions within the folded IAPP, which are necessary for aggregation and fibril formation. The peptides that have been examined (shown in FIG. 2) were small, synthetic hexapeptides that correspond to the principal sequence domains of IAPP. […] The in vitro assays included: Circular Dichroism (CD), to look at changes in folding of the amyloidogenic β-sheet; negative stain electron microscopy (EM) to examine changes in fibril morphology and relative density; and ThT fluorescence assay which provides a quantitative assessment of fibril formation.
Synthetic human IAPP (1–37) was purchased from BACHEM (Torrence, Calif.), synthetic peptides spanning the region from IAPP 8 to 20 and 19–31 (FIG. 3) were synthesized by the Peptide Synthesis Laboratory at the University of Toronto using standard FMOC (Fluoroenylmethoxycarbonyl) based solid phase peptide synthesis methodology. The peptides were purified by reverse phase HPLC using water/acetonitrile mixtures buffered with 0. 1% trifluoroacetic acid, on a POROS 20R2 column. The synthetic peptides were solubilized in […] (1 mg/ml), filtered (0.2 μm), aliquotted and lyophilized (Higham, C E., et al., FEBS Lett. 470: 55–60, 2000). Aliquots were reconstituted as required in 20 mM sodium acetate buffer pH 6.5.
CD was used to measure the peptide conformational changes associated with fibril formation. CD experiments were carried out at room temperature, and spectra (average of 5 scans) were collected using a Jasco J720 spectropolarimeter and quartz cuvettes with a path length of 1 mm. […]

hIAPP 1–37 [2] = target: T1, hIAPP 1–37; assay: Negative stain electron microscopy of IAPP fibril morphology and density; assay type: biochemical
Source text: as §1
TEM was used for structural analysis of in vitro assembled fibrils. Aliquots (4 μl) were applied to pioloform and carbon coated grids. The samples were incubated on the grids for 3 minutes at room temperature, excess material blotted off and stained with 1% phosphotungstic acid (PTA). Excess PTA was blotted off and the sample was left to air dry. All samples were examined using a Hitachi 7000 electron microscope with an accelerating voltage of 75 kV.
In preliminary work the series of peptides were synthesized from the 20–29 domain and examined, via CD, EM and ThT fluorescence, at two molar ratios (1:10 and 1:20) in comparison to the full-length IAPP residues 1–37. The following data (FIGS. 5A to 5D, 6A to 6C and 7A to 7B) were obtained.

hIAPP 1–37 [3] = target: T1, hIAPP 1–37; assay: Sedimentation assay (tyrosine scan) of soluble versus insoluble hIAPP; assay type: biochemical; settings: hIAPP 11 μM with 10 fold excess (110 μM) peptide
Description: Aliquots of lyophilized hIAPP 1–37 were dissolved in 20 mM acetate buffer (pH 6.5) to 11 μM and incubated in a total volume of 500 μl at room temperature. Tyrosine emission spectra were collected (emission wavelength 275 nm) on a Beckman DU530 spectrophotometer for each sample at time 0. Following a 24 hour incubation at room temperature, the soluble and aggregated peptides in each sample were separated by centrifugation at 16,000 g for 20 minutes, and the emission spectra were measured on the soluble fractions. The samples were then vortexed to resuspend the entire contents of each tube, and were incubated for an additional 24 hours. This process was repeated for a total of 72 hours of incubation. For co-incubation experiments, hIAPP was incubated with a 10 fold excess concentration (110 μM) of the inhibitory peptides SNNFGA (SEQ ID NO. 11), and GAILSS (SEQ ID NO. 14).
Sedimentation assays were performed to confirm the results from CD and electron microscopic analysis (FIGS. 7A and 7B) on the ability of peptides SNNFGA (SEQ ID NO. 11) and GAILSS (SEQ ID NO. 14) to inhibit IAPP fibril formation. hIAPP (11 μM) was incubated for a period of 72 hours in 20 mM acetate buffer alone, or with a 10 fold excess (110 μM) of the peptides.
A tyrosine scan was used to determine the amount of soluble hIAPP remaining in solution after a 72-hour incubation. […] Following a 24-hour incubation, the amount of soluble hIAPP had reduced to 8%. However, when hIAPP was incubated in the presence of the peptide SNNFGA (SEQ ID NO. 11), the amount of IAPP remaining in solution was approximately […], and in the presence of peptide GAILSS (SEQ ID NO. 14), more than 80% of the hIAPP remained in solution. By 48 hours, the hIAPP incubated alone was no longer soluble and was not detectable using a tyrosine scan. However, approximately 25% of the hIAPP was still measured when co-incubated with either peptide. Similarly, after 72 hours approximately 20% of the hIAPP was still soluble in the sample co-incubated with peptide SNNFGA (SEQ ID NO. 11) or GAILSS (SEQ ID NO. 14).

[4] = 24-hour incubation, normalized to hIAPP alone at time 0

Molecule: CC[C@H](C)[C@H](NC(=O)[C@H](C)NC(=O)CNC(=O)[C@H](Cc1ccccc1)NC(=O)[C@H](CC(N)=O)NC(=O)[C@H](CC(N)=O)NC(=O)[C@H](CO)NC(=O)[C@H](CO)NC(=O)[C@H](Cc1c[nH]cn1)NC(=O)[C@@H](NC(=O)[C@H](CC(C)C)NC(=O)[C@H](Cc1ccccc1)NC(=O)[C@H](CC(N)=O)NC(=O)[C@H](C)NC(=O)[C@H](CC(C)C)NC(=O)[C@H](CCCNC(=N)N)NC(=O)[C@H](CCC(N)=O)NC(=O)[C@@H](NC(=O)[C@H](C)NC(=O)[C@@H]1CSSC[C@H](NC(=O)[C@@H](N)CCCCN)C(=O)N[C@@H](CC(N)=O)C(=O)N[C@@H]([C@@H](C)O)C(=O)N[C@@H](C)C(=O)N[C@@H]([C@@H](C)O)C(=O)N1)[C@@H](C)O)C(C)C)C(=O)N[C@@H](CC(C)C)C(=O)N[C@@H](CO)C(=O)N[C@@H](CO)C(=O)N[C@H](C(=O)N[C@@H](CC(N)=O)C(=O)N[C@H](C(=O)NCC(=O)N[C@@H](CO)C(=O)N[C@@H](CC(N)=O)C(=O)N[C@H](C(=O)N[C@@H](Cc1ccc(O)cc1)C(N)=O)[C@@H](C)O)C(C)C)[C@@H](C)O [hIAPP, reference compound]
- decrease in cell viability compared to cells in culture medium alone (RIN-1056A cells; 10 μM hIAPP, 24 hours): 35–40%

Molecule: GAILSS
- inhibition of IAPP β-sheet transition and aggregation (CD) (hIAPP 1–37 [1]; 1:10 or 1:20 molar ratio (10- or 20-fold molar excess)): very strong inhibitors of IAPP β-sheet transition; also recorded: majority of IAPP in these samples was maintained in a random conformation
- inhibition of IAPP β-sheet conformational change at reduced concentrations (CD) (hIAPP 1–37 [1]; 5-fold molar excess (1:5) or 1:1 molar ratio): very strong inhibitor; also recorded: capable of maintaining the majority of hIAPP in a random coil conformation
- effect on IAPP β-sheet formation / precipitation (CD) (hIAPP 1–37 [1]; 48-hour incubation, pH 6.5): able to prevent the attenuation of signal due to precipitation of IAPP
- inhibition of IAPP β-sheet formation / fibril formation, overall statement (CD) (hIAPP 1–37 [1]; molar ratio not stated): greatest inhibition of IAPP fibril formation
- effect on initial random structure of IAPP (CD) (hIAPP 1–37 [1]; time 0, 1:10 or 1:20 molar ratio): had no effect on the initial random structure of IAPP
- prevention of IAPP fibril formation (EM) (hIAPP 1–37 [2]; 10- or 20-fold molar excess): did not completely prevent fibril formation
- effect on IAPP fibril morphology / density / aggregation (EM) (hIAPP 1–37 [2]; molar ratio not stated): caused a disruption in IAPP fibrillar structure; also recorded: fibrils formed were less numerous; also recorded: absence of fibrillar aggregates which could act as seeds
- inhibition of normal IAPP fibrillar aggregation (EM) (hIAPP 1–37 [2]; reduced inhibitor concentrations): effective inhibitors of normal IAPP fibrillar aggregation
- amount of hIAPP remaining in solution (hIAPP 1–37 [3]; [4]): more than 80%
- amount of hIAPP remaining in solution (hIAPP 1–37 [3]; 48 hours): approximately 25%
- amount of hIAPP remaining in solution (hIAPP 1–37 [3]; 72 hours): approximately 20%

Molecule: SNNFGA [SNNFGA]
- direct toxicity of the peptide to pancreatic β cells in culture (RIN-1056A cells): not directly toxic
- amount of hIAPP remaining in solution (hIAPP 1–37 [3]; [4]): approximately 15%
- amount of hIAPP remaining in solution (hIAPP 1–37 [3]; 48 hours): approximately 25%
- amount of hIAPP remaining in solution (hIAPP 1–37 [3]; 72 hours): approximately 20%
